From US10017560

Experiments:
[1] = target: Tomato Leaf Curl Sudan Virus (ToLCSDV) purified viral particles (Tomato Leaf Curl Sudan Virus); test: SPR single-cycle kinetics, ToLCSDV captured at 405 RU
[2] = target: Tomato Leaf Curl Sudan Virus (ToLCSDV) purified viral particles (Tomato Leaf Curl Sudan Virus); test: SPR single-cycle kinetics, ToLCSDV captured at 185 RU
[3] = target: Tomato Leaf Curl Sudan Virus (ToLCSDV) purified viral particles (Tomato Leaf Curl Sudan Virus); test: SPR single-cycle kinetics, ToLCSDV captured at 310 RU
[4] = target: Tomato Leaf Curl Sudan Virus (ToLCSDV) purified viral particles (Tomato Leaf Curl Sudan Virus)

B1: Nb-To2 (VHH)
VHH: QVQLQESGGGSVQAGGSLRLSCVASGDTLRLCRMGWYRQAPGKGRELVSSMEIDGTTNYADSVKGRFTISQGDNRNTMYLQMNSLKPEDTAMYYCKMEGGYGGNCRLAIYNYWGQGTQVTVSS
Kd [1]: 0.432 nM | koff [1]: 0.00161 s⁻¹ | kon [1]: 3.72e+06 M⁻¹ s⁻¹ | Kd [2]: 0.292 nM | koff [2]: 0.00135 s⁻¹ | kon [2]: 4.65e+06 M⁻¹ s⁻¹ | Kd [3]: 0.374 nM | koff [3]: 0.00151 s⁻¹ | kon [3]: 4.05e+06 M⁻¹ s⁻¹ | A1 (% ToLCSDV Binding) [4]: -0.842 | A2 (% ToLCSDV Binding) [4]: 101 | EC20 (dilution of the NbTo2 sample) [4]: 0.00459 | EC80 (dilution of the NbTo2 sample) [4]: 0.000613 | LOGx0 (log(dilution NbTo2)) [4]: -2.78 | p [4]: -1.38 | span (% ToLCSDV Binding) [4]: 102
